Laboratory results reported in the nanobody polyreactivity screen of Harvey et al. (2022).

Assay: yeast display, Sf9 membrane polyspecificity reagent, FACS + sequencing; frameworks hold sequencing errors
In short: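 Synthetic nanobody libraries on Saccharomyces cerevisiae BJ5465 were galactose-induced for 36–48 hours, stained 1 hour at 4 °C with 10% biotinylated, detergent-solubilized Sf9 membrane reagent and enriched on streptavidin microbeads. FACS then separated cells into low and high (top ~1%) gates by anti-HA (expression) and streptavidin (reagent binding) fluorescence. Genes were colony-PCR amplified, MiSeq 2 × 250 sequenced and CDR-length filtered. A clone's polyreactivity label is that of its gate of origin.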

## QVQLVESGGGLVQAGGRLRLSCAASGSIFYSNAMGWYRQAPGKEREFVAAISAGGGSTYYADSVKGRFTISRDNAKNTVYLQMNSMKPEDTAVYFCAAQPYKIIYPYDYWGQGTQVTVSS
  polyreactivity (PSR sort gate): low polyreactivity

## QVQLVESGGGLVQAGGSLRLSCAASGSIFAGNTMGWSRQAPGKEREFVASIRSSSGSTYYADSVKGRFTISRDNAKNTVYLQMNSLKPEDTAVYYCARVAPASGVRWYYYWGQGTQVTVSS
  polyreactivity (PSR sort gate): high polyreactivity

## QVQLVESGGGLVQAGGSLRLSCAASGNIFRPYTMGWNRQEPGKERELVARISSGGSTNYADSVKGRFTISRDNAKNTVYFQMNSLKPEDTAVYYCAKRYGTVHSRYGYWGQGTQVTVSS
  polyreactivity (PSR sort gate): high polyreactivity

## QVQLVESGGGLVQAGGSLRLSCAASGFIFYPYAMGWYRQAPGKERELVASIYSGGRTYYADSVKGRFTISRDNAKHTVYLQMNSLKPEDTAVYYCNARSRYFGYDYWGQGTQVTVSS
  polyreactivity (PSR sort gate): high polyreactivity

## QVQLVESGGGLVQAGGSLRLSCAASGLIFHRNAMGWYRQAPGKERELVAAITKTGGGTYYADSVKGRFTISLDNAKNTVYLQMNSLKPEDTAVYYCAADTQRTFYYWGQGTQVTVSS
  polyreactivity (PSR sort gate): low polyreactivity

## QVQLVESGGGLVQAGGSLRLSCAASGLTFNYYAMGWSRPAPGKERELVAAISSDGRTDYADSVKGRFTISRDNAKNTVYLQMNSLKPEDTAVSYCAASWYRWGKSWRQYDYWGQGTQVTVSL
  polyreactivity (PSR sort gate): low polyreactivity

## QVQLVESGGGLVQAGGSLRLSCAASGFIFYYYAMGWYRQAPGKERELVAAISKSGGSTYYADSVKGRFTISRDNAKKTVYLQMNSLIPEDTAVYYCAAVVTTWPYYGFGYWGQGTQVTVSS
  polyreactivity (PSR sort gate): high polyreactivity

## QVQLVDSGGGLVQAGGSLSLSCAASGRIFTHYSMGWYRQATGKERELVAGMSQGGGSTYYADSVKGRFTISRDNAKNTVYLQMNSLKPEDTAVYYCAKTYDYVDYDYWGQGTQVTVSS
  polyreactivity (PSR sort gate): low polyreactivity

## QVQLVESGGGLVQAGGSLRLSCAASGRTFRYYDMGWYRQSPGKERELVARISISGAGTYYADSVKVRFTISRDNAKNNVYLQMNSLKPEDTAVYYCAADLFWWQKTNSGGDYWGQGTQVTVSS
  polyreactivity (PSR sort gate): low polyreactivity

## QVQIVESGGGLVQAGGSLRLSCAASGFIFRRNAMGWYRQAPGKERELVATIRASGGRTYYADSVKGRFTISRDNAKNTVYLQRNSLKPEDTAVYYCNAGKAPYLRYDYWGQGTEVTVSS
  polyreactivity (PSR sort gate): high polyreactivity

## QVQLVESGGGLVQAGGSLRLSCAASGITFGAYAMGWYRQAPGKEMELVAVITRGADTYYADSVKGRFTISRDNAKNTVYLQMNSLKPEDTAVYDCAAEIDLPYYYGSDDDDYWGQGTQVTVSS
  polyreactivity (PSR sort gate): high polyreactivity

## QVQLQESGGGLVQAGGSLLLSCAASGSSYDDTYMGWYRQAPGKERELVATIDSGSTTNYADSVKGRNTISRDNAKYTLYLQMNSLKPEDTAVYYCAAADSHIDYFDYWGQGTQVTVSS
  polyreactivity (PSR sort gate): low polyreactivity

## QVQLVESGGGLVHAGGSLRLSCAASGRIFGTNAMGWYIQAPGKERELVATITRGGGNTYYADSVKVRFTISRDHAMNTVDLQMNSLKPEDTAVYYCNVDYGVHVPPRDYWGQGTQVTVSS
  polyreactivity (PSR sort gate): low polyreactivity

## QVQLVESGGGLVQAGGSLRLSCAASGFTFSFYTMGGYRQAPGTARELVAAISRNGGSTYYADSVKGRFTISRDNAKTTDYFQMNSLKPEDTAVYYCAARARGGDWGSGDYWGQGTQVTVSS
  polyreactivity (PSR sort gate): high polyreactivity

## QVQLVESGGGLVQAGGSLRLSCAASGSIFAGYVMGWYRPAPGKERELVAATYYADSVKGRFTISRDNAKNTVYLQMNSLKPEDTAVYYCNAESLYTHYNDTSLTVEYGYWGQGTQVTVSS
  polyreactivity (PSR sort gate): low polyreactivity

## QVQLVESGGGLVQAGGSLRLSCAASGITFWYNAMGWYRQAPGKERELVAAISGGGGSTYYADSVKGRFTISRDNAMNTVYLQMNSLKPEDTAVYYCAARQVARVYSGRYGYWGQGTQVTVSS
  polyreactivity (PSR sort gate): high polyreactivity

## QVQLVESAGGVVQAGGSLRLSSAASGSIFDGNAMGWYRPAPGKERQLVAAISGGGRTYYADSVKGRFTISRDNAKNTVYLQMNSLKPEDTAVYYCAAAYTFYVYGSYKVTFDYWGQGTQVTVSS
  polyreactivity (PSR sort gate): low polyreactivity

## QVQLVESGGGLVQAGGSLRLSCAASGIILTEYAMGWYRQAPGKERELVAAINRVGSTNYADSVKGRFTISRDNAKNTVYLQMNSLKPEDTAVYYCAAGTYYNDYDYWGQGTQVTVSS
  polyreactivity (PSR sort gate): low polyreactivity

## QVQLVESGGGLGQAGGSLRLSCAASGLIIQPNAMGWYSPAPGKERELVAAISSSDGSTYYADSVKGRFTISRDNAKNTVYLQMNSLKREDSAVYYCAAGYYFQVEPDLVYIYSYEYWGQGTHVTVSS
  polyreactivity (PSR sort gate): low polyreactivity

## QVQLVESGGGLVQAGGSLRLSCAASGYIFTYNALGWSRQAPGKDRELVAAISSGHGRTYYADSVKGRFTISRDHAQNTVDLEMNSLKPEDTAVYYCNASRVVYRQAYLYGYDYWGQGTQVTVSS
  polyreactivity (PSR sort gate): low polyreactivity

## QVQLVESGGGLVQAGGSLRLSCAASGSIFHGYAMGWYRQAPGKERELVAAITYSGGRTYYADSVKGRFTISRDNAKNTVYLQMNSLKPEDTAVYYCAALTRRVKKYDYWGQGTQVTVSS
  polyreactivity (PSR sort gate): high polyreactivity

## QVQLVESGGGLVQAGGSLRLSCSASGSTFYRYAMGWYRQAPGKERELVATITSGGSTHYADSVKGRFTISRDNAKNTVYLQMNSLKPEDTAVYYAATTSDWYTTINVVYRYYYWGQGTQVTVSS
  polyreactivity (PSR sort gate): high polyreactivity

## QVQLVESGGGLVQAGGSLRLSCAASGITFCSYTMGWYRQAPGKERELVAVISSGGSTNYADSVKGRFTISRDNAKNTVYLQMNSLKPEDTAVYYCAADFRWWYTGFDYWGQGTQVTVSS
  polyreactivity (PSR sort gate): high polyreactivity

## QVQLVESGGGLVQAGGSLRLSCAASGSTFVTYAMGWYRQAPGKERELVAAISSGGGNTYYADSVKGRFTISRDNAKNTVYLQMNSLKPEDSAVYYCAAVNPRSEYDYWGQGTQVTVSS
  polyreactivity (PSR sort gate): high polyreactivity

## QVQLVETGGGLVQAGCSLRLSCASSGFIFVRNAMGRYRQAPGIERELVATINSGGGTNYADSVKWRFTISRDNAKNSVYFQMNSLKPDDTAVYYCAAGQTSPERYGLGYWGQGSQVTVSS
  polyreactivity (PSR sort gate): low polyreactivity

## QVQLVESGGGLVQAGGSLRLSCAASGSTFAPNAMGWYRQAPGKERELVAAISRGGSTYYADSVKGRFTISRDNAKNTVYLQMNSLKPEDTAVYYCAVYKFHYGYVWYPYDYWGQGTQVTVSS
  polyreactivity (PSR sort gate): high polyreactivity

## QVQLVESGGGLVQAGGSLRLSCAASGSIFRYNTMGWYRQAPGKERELVARISSGGSTYYADSVKGRFTISRDNAKNTVYLQMNSLKPEDTAVYYCAAVSRHRGWDRYYWGQGTQVTVSS
  polyreactivity (PSR sort gate): high polyreactivity

## QVQLVESGGGLVQAGGSLRLSCAASGSTFDRNAMGWYRPAPGKERELVAAISWTGTSTRYADSVKGRFTISRDNAKNTVYLHMNSLKPEDTAGYYCAARGYSYYQRLYYWGQGTQVTVSS
  polyreactivity (PSR sort gate): high polyreactivity

## QVQLVESGGGLVQAGGSLRLSCAASGSTFQINAMGWYRQAPGKERELVAAIDGGGDTYYADSVKGRFTISRDNAKNTVYLQMNTLKPEDTAVYYCAAERRIYYQDFNYWGQGTQVTVSS
  polyreactivity (PSR sort gate): low polyreactivity

## QVQHVESGGGLVQAGGSLRLSCAASGRTFNYYAMGWYRQAPGKERELVAAISSSGGRTYYADSVKGRFTISRDNAKNTVYLQMNSLKPEDTAVYYCAADSFYYRPEYDYWGQGTQVTVSS
  polyreactivity (PSR sort gate): low polyreactivity

## QVQLVESGGGLVQAGGSLRLSCAASGLIFSSNAMGWYRQAPGKERELVATISWSGGSTYYADSVKGRFTISRDNAKNTVYLQMNSLKPEDTAVYYCCWSALNGYDYWGQGTQVTVSS
  polyreactivity (PSR sort gate): high polyreactivity

## QVQLVESGGGLVQAGGSLRLSCAASGRIFGTYAMGWYRQAPGKERELVASITDRGDSTYADSVKGRFTISRDNAKNTVYLQMNSLKPEDTAVYYCAVGYNSKLAVGMYYWGQGTQVTVSS
  polyreactivity (PSR sort gate): low polyreactivity

## QVQLVESCGGLVQAGGSLRLSCAASGSIFRSFAMGWYREAPWKERELVAAISSGGRTKYADSVKGRFTISRDNAKNTVYLQMNSLKPEDTAVYYCAARVNVKYYGFYYWGQGTQVTVSS
  polyreactivity (PSR sort gate): high polyreactivity

## QFQLVESGGGLVQAGGSLRLSCAASGLTIYSYSMGWYRQAPGKERELVAAITWRGGSTYYADSVKGRFTISRDHAKNTDYLQMNSVKPEDTALYYCAADPGPYGYYYWGQGNQVTVSS
  polyreactivity (PSR sort gate): low polyreactivity

## QVQLVESGGGLVQAGGSLRLSCAASGSSVYSYAMGWYRQAPGKERELVAAISWRGGSTYYADSVKGRFTISRDNAKNTVYLQMNSLKPEDTAVYYCAAYYYTGPTTVESDYWGQGTQVTVSS
  polyreactivity (PSR sort gate): high polyreactivity

## QVQLVESGGGLVQAGGSLRLSCAASGRIFQYYAMGWYRQAPGKEREFVAAISDSGSNTYYADSVKGRFTISCDKAKNTVYLQMNSLKPEDTAVSYCAALYATRALFYFWGQGTQVTVSS
  polyreactivity (PSR sort gate): low polyreactivity

## QVQLVESGGGLVQEGGSLRLSCAASGLICQHNARVWSRHAPGKERELVAAISRSAGSSYYADSEKGRFTISRDNAKNTVYLQMNCLKPEDTAVFYCAKRPTPTTKDDTVRYGYWGQGSQVTVSS
  polyreactivity (PSR sort gate): low polyreactivity

## QVQLVESGGGLVQAGGSLRLSCAASGFTFYKYAMGWYRQAPGKERELVAGISSRGTRTYYADSVKGRFTISRDNAKNTVYLQMNSLKPEDTAVYDCAADSNTVNYDYWGQGTQVTVSS
  polyreactivity (PSR sort gate): high polyreactivity

## QVQIVESGGGLVQAGGSLRLSCAASGSTFPYNAMVWYRKEPGKERELVAVITTVGSTYYADSVKGRFTISRDNAKNTVYLQMNSLKPEDTAVYYCAAANTQSPGYDYWGQGTQVTVSS
  polyreactivity (PSR sort gate): low polyreactivity

## QVQLVESGGGLVQAGGRLRLSCAATGRTFLAYAMGWYREAPGKERELVAAITIGGGTYADSVKGRFTISRDNAKNTVYLQMNSLKQEDTAVYYCAKPGWYDGDYWGQGTQVTVSS
  polyreactivity (PSR sort gate): low polyreactivity

## QVQLVESGGGLVQAGGSLRLSCAASGFTFTMNAMGWYRQAPGKERELVAGISSGGSTNYADSVKGRFTLSRDNEKNTVYLQMNSLKPEDTAVYYCAADRGYVWRYDYWGQGTQVTVSS
  polyreactivity (PSR sort gate): low polyreactivity

## QVQLVESGGGLVQAGGSLRLSCAASGSTFGWYAMGLYRQAPGKERELVATISSGGSTYYADSVKGRFTISRDNAKNTVYLQMNSLKPEDTAVYYCAADYWTYEYPGYDYWGQGTQVTVSS
  polyreactivity (PSR sort gate): low polyreactivity

## QVQLVESGGRLVQSGGSLRLSCAASGRTIVENAMGLYRQAPGKEREFVAAISYKGGSTYYADSVKGRFTISRDNAKNTVYFQMNSLNPEDTAVYYCAADPNYGYDYWGQGTQVTVST
  polyreactivity (PSR sort gate): low polyreactivity
